From patent EP4454706A1 (Universität Stuttgart, dated 2024) come the findings set out here.

Like-named read-outs stand apart in the source and are kept apart here.

The EC50 is the concentration that produces a half-maximal response. In general, Kd refers to the equilibrium constant for the complex coming apart. A low value points to higher affinity.

The target in assay [1] is T1, CD3 on Jurkat cells (human, UniProt P07766 23-207).
T1 construct: whole, on cells; also called CD3-expressing Jurkat
Kind of assay: flow cytometry, Jurkat cells. On the technique in general: Flow cytometry measures light scatter and fluorescence of single cells or particles in a stream.

For assay [2], the target named is T2, human EGFR (aa 1 - 1,210), on cells (human, UniProt P00533 25-1210). Put plainly: cell-based or functional assay.
For assay [3], the target named is T2, human EGFR (aa 1 - 1,210), on cells. Kind of assay: flow cytometry, FaDu cells.
Assay [4] shares this target. Put plainly: flow cytometry, LIM1215 cells.
The target of assay [5] is T3, His-tagged extracellular domain of EGFR comprising the mutation S492R (human, UniProt P00533 25-645).
T3 construct: See m46; also called S492R (BLI antigen)
Put plainly: BLI (Octet), Fab on FAB2G sensor, EGFR-His in solution. In general terms: In BLI a coated tip is dipped into the sample, and binding shifts an interference pattern.

For assay [6], the target named is T4, His-tagged extracellular domain of EGFR comprising the mutation S464L (human, UniProt P00533 25-645).
T4 construct: See m46; also called S464L (BLI antigen)
The assay is described as above.

The target of assay [7] is T5, His-tagged extracellular domain of EGFR comprising the mutation G465R (human, UniProt P00533 25-645).
T5 construct: See m46; also called G465R (BLI antigen)
The assay is described as above.

Assay [8] concerns the target T6, EGFR-His fusion protein comprising the extracellular domain (aa 25 - 645) of human EGFR (human, UniProt P00533 25-645).
T6 construct: also called His-tagged extracellular domain of EGFR wt
Described as above.

For assay [9], the target named is T7, His-tagged extracellular domain of EGFR comprising the mutation V441D (human, UniProt P00533 25-645).
T7 construct: See m46; also called V441D (BLI antigen)
The assay is described as above.

The target in assay [10] is T8, EGFR-moIgG2a-Fc fusion protein comprising the extracellular domain (aa 25 - 645) of human EGFR (human).
T8 construct: also called EGFR wt
Put plainly: ELISA, coated EGFR-moIgG2a-Fc. (In general: ELISA stands for enzyme-linked immunosorbent assay.)

Assay [11] has as its target T2, human EGFR (aa 1 - 1,210), on cells. Kind of assay: flow cytometry, DiFi cells.
Assay [12] has as its target T6, EGFR-His fusion protein comprising the …. Put plainly: ELISA, coated EGFR-His.
The target in assay [13] is T2, human EGFR (aa 1 - 1,210), on cells. Kind of assay: flow cytometry, FaDu cells. This is another data set of the same source.
Assay [14] addresses T8, EGFR-moIgG2a-Fc fusion protein …. Kind of assay: ELISA, coated EGFR-moIgG2a-Fc. This is another data set of the same source.
The target of assay [15] is T6, EGFR-His fusion protein comprising the …. Put plainly: ELISA, coated EGFR-His. This is another data set of the same source.

B1: scDb-YU250-H10 x huU3-scFv-YU250-H10 (bispecific antibody)
chain: QVQLVQSGGGVVQPGGSLRLSCAASGFTFSSYGMHWVRQAPGKGLEWVAFIRYDGSNKYYADSVKGRFTISRDNSKNTLYLQMNSLRAEDTAVYYCAKDGNSGYDSMDYWGQGTLVTVSSGGGGSDIQMTQSPSSLSASVGDRVTITCRASQDIRNYLNWYQQKPGKAPKLLIYYTSRLHSGVPSRFSGSGSGTDFTFTISSLQPEDIATYYCQQGNTLPWTFGQGTKLEIKRGGGGSGGGGSGGGGSQVQLVQSGAEVKKPGSSVKVSCKASGGTFSGYTMNWVRQAPGQGLEWMGLINPYKGVSTYNGKFKDRVTITADKSTSTAYMELSSLRSEDTAVYYCARSGYYGDSDWYFDVWGQGTLVTVSSGGGGSQSVLTQPPSVSGAPGQRVTISCSGGSSNVGRNGVNWFQHLPEKAPKLLIYYDAFLSSGVSDRFSGSKSGTSASLAIRGLQSDDEADYYCAAWDDSLYSWVFGGGTNLTVLAAAGGSGGGGSGGGTQVQLVQSGGGVVQPGGSLRLSCAASGFTFSSYGMHWVRQAPGKGLEWVAFIRYDGSNKYYADSVKGRFTISRDNSKNTLYLQMNSLRAEDTAVYYCAKDGNSGYDSMDYWGQGTLVTVSSGGGGSGGGGSGGGGSQSVLTQPPSVSGAPGQRVTISCSGGSSNVGRNGVNWFQHLPEKAPKLLIYYDAFLSSGVSDRFSGSKSGTSASLAIRGLQSDDEADYYCAAWDDSLYSWVFGGGTNLTVLGSLHHHHHH
notes: Trivalent; detected with an anti-His antibody; also called scDb-scFv; bispecific trivalent EGFRxCD3 scDb-scFv
As to B1, the EC50 in [1] was more than 10 nM; in [3] it was 0.74 nM; in [4], 0.31 nM. Further, in assay [2], the “IC50 for cytotoxicity, FaDu + PBMCs (E:T 10:1)” value is 4.4 pM. Moreover, the “IC50 for cytotoxicity, LIM1215 + PBMCs (E:T 10:1)” value in [2] stood at 4 pM.

B2: Fab-His MKU011-A7 (Fab, V domains shown)
VH: QVQLVQSGGGVVQPGGSLRLSCAASGFTFSSYGMHWVRQAPGKGLEWVAFIRYDGSNKYYADSVKGRFTISRDNSKNTLYLQMNSLRAEDTAVYYCAKDGNSGYDSMDYWGQGTLVTVSS
VL: QPVLTQSPSASGTPGQRVTISCSGVSSNIGRNYVYWYQQFPGTAPKLLIYATHQRPSGVPDRFSGSKSGTSASLAISGLRSEDEANYYCAAWDDGVTGWVFGGGTKLTVLG
notes: also called Fab MKU011-A7; His-tagged anti-EGFR Fab MKU011-A7
On to B2, for which the Kd in assay [5] is less than 10 µM; in [6], less than 10 µM; in [7], less than 10 µM; in assay [8], less than 100 nM; in [9], less than 10 µM. This molecule returned an EC50 in [10] of 2.79 nM.

B3: Fab-His YU250-A02 (Fab, V domains shown)
VH: QVQLQESGGGVVQPGGSLRLSCAASGFTFSSYGMHWVRQAPGKGLEWVAFIRYDGSNKYYADSVKGRFTISRDNSKNTLYLQMNSLRAEDTAVYYCAKDGNSGYDSMDYWGQGTLVTVSS
VL: QSVLTQPPSVSGAPGQRVTISCSGGSSNVGRNGVNWFQHLPEKAPKLLIYYDAFLSSGVSDRFSGSKSGTSASLAIRGLQSEDEADYYCASWDDSLTGWVFGGGTKLTVLG
notes: Roles inferred as for IgG YU250-A02; also called Fab YU250-A02
As to B3, the Kd in assay [5] was less than 10 µM; in assay [6], less than 10 µM; in assay [7], less than 10 µM; in [8], less than 100 nM; in assay [9] it was less than 10 µM.

B4: IgG1 MKU011-A7 (antibody, V domains shown)
VH: QVQLVQSGGGVVQPGGSLRLSCAASGFTFSSYGMHWVRQAPGKGLEWVAFIRYDGSNKYYADSVKGRFTISRDNSKNTLYLQMNSLRAEDTAVYYCAKDGNSGYDSMDYWGQGTLVTVSS
VL: QPVLTQSPSASGTPGQRVTISCSGVSSNIGRNYVYWYQQFPGTAPKLLIYATHQRPSGVPDRFSGSKSGTSASLAISGLRSEDEANYYCAAWDDGVTGWVFGGGTKLTVLG
notes: Fully human IgG1; also called IgG MKU011-A7; IgG MKU-011-A07
For B4, the EC50 came to 0.81 nM in assay [11], 0.19 nM in assay [12], 0.35 nM in assay [13] and 0.32 nM in [10].

B5: Fab-His YU250-H10 (Fab, V domains shown)
VH: QVQLVQSGGGVVQPGGSLRLSCAASGFTFSSYGMHWVRQAPGKGLEWVAFIRYDGSNKYYADSVKGRFTISRDNSKNTLYLQMNSLRAEDTAVYYCAKDGNSGYDSMDYWGQGTLVTVSS
VL: QSVLTQPPSVSGAPGQRVTISCSGGSSNVGRNGVNWFQHLPEKAPKLLIYYDAFLSSGVSDRFSGSKSGTSASLAIRGLQSDDEADYYCAAWDDSLYSWVFGGGTNLTVLG
notes: T0001 gives '6 and 8' and '9 and 11' for Fab-His YU250-H10; Roles inferred; also called Fab YU250-H10
With B5, in assay [14], the “fold increased binding against Fab-His MKU011-A7” value is 4.7 fold. Also, the Kd in assay [5] was less than 10 µM; in assay [6] it was less than 10 µM; in assay [7] it was less than 10 µM; in assay [8] it was less than 100 nM; in [9] it was less than 10 µM. This molecule displayed an EC50 in assay [10] of 0.59 nM.

B6: IgG YU250-H10 wt (parental antibody of Example 5) (antibody)
light: QSVLTQPPSVSGAPGQRVTISCSGGSSNVGRNGVNWFQHLPEKAPKLLIYYDAFLSSGVSDRFSGSKSGTSASLAIRGLQSDDEADYYCAAWDDSLYSWVFGGGTNLTVLGQPKAAPSVTLFPPSSEELQANKATLVCLISDFYPGAVTVAWKADSSPVKAGVETTTPSKQSNNKYAASSYLSLTPEQWKSHRSYSCQVTHEGSTVEKTVAPTECS
heavy: not shown
notes: kept as a molecule of its own; Roles inferred
Turning to B6, a half-maximal response in assay [15] (EC50) required 0.49 nM.

B7: IgG YU250-H10 variant VL N126K (antibody)
light: QSVLTQPPSVSGAPGQRVTISCSGGSSNVGRNGVNWFQHLPEKAPKLLIYYDAFLSSGVSDRFSGSKSGTSASLAIRGLQSDDEADYYCAAWDDSLYSWVFGGGTKLTVLGQPKAAPSVTLFPPSSEELQANKATLVCLISDFYPGAVTVAWKADSSPVKAGVETTTPSKQSNNKYAASSYLSLTPEQWKSHRSYSCQVTHEGSTVEKTVAPTECS
heavy: not shown
notes: Potential glycosylation site in VL deleted (N126K); Roles inferred; also called VL N1216K
Molecule B7 showed an EC50 in assay [15] of 0.53 nM.

B8: scDb YU250-H10 x huU3 (bispecific antibody)
chain: QVQLVQSGGGVVQPGGSLRLSCAASGFTFSSYGMHWVRQAPGKGLEWVAFIRYDGSNKYYADSVKGRFTISRDNSKNTLYLQMNSLRAEDTAVYYCAKDGNSGYDSMDYWGQGTLVTVSSGGGGSDIQMTQSPSSLSASVGDRVTITCRASQDIRNYLNWYQQKPGKAPKLLIYYTSRLHSGVPSRFSGSGSGTDFTFTISSLQPEDIATYYCQQGNTLPWTFGQGTKLEIKRGGGGSGGGGSGGGGSQVQLVQSGAEVKKPGSSVKVSCKASGGTFSGYTMNWVRQAPGQGLEWMGLINPYKGVSTYNGKFKDRVTITADKSTSTAYMELSSLRSEDTAVYYCARSGYYGDSDWYFDVWGQGTLVTVSSGGGGSQSVLTQPPSVSGAPGQRVTISCSGGSSNVGRNGVNWFQHLPEKAPKLLIYYDAFLSSGVSDRFSGSKSGTSASLAIRGLQSDDEADYYCAAWDDSLYSWVFGGGTNLTVLAAAGGSGGGGSGGGTGGGGSLHHHHHH
notes: Bivalent single-chain diabody; detected with an anti-His antibody; also called bispecific EGFRxCD3 scDb
On to B8, for which the EC50 is 7.56 nM in [1], 1.68 nM in assay [3] and 1.02 nM in assay [4]. Moreover, the “IC50 for cytotoxicity, FaDu + PBMCs (E:T 10:1)” value in [2] is 18.1 pM. For the same molecule, the “IC50 for cytotoxicity, LIM1215 + PBMCs (E:T 10:1)” value in assay [2] came to 60.2 pM.
